Reference: IntAct's records for PubMed 20671708

Target: ago2_human AGO2 (UniProt Q9UKV8)
Sequence (Q9UKV8 whole entry): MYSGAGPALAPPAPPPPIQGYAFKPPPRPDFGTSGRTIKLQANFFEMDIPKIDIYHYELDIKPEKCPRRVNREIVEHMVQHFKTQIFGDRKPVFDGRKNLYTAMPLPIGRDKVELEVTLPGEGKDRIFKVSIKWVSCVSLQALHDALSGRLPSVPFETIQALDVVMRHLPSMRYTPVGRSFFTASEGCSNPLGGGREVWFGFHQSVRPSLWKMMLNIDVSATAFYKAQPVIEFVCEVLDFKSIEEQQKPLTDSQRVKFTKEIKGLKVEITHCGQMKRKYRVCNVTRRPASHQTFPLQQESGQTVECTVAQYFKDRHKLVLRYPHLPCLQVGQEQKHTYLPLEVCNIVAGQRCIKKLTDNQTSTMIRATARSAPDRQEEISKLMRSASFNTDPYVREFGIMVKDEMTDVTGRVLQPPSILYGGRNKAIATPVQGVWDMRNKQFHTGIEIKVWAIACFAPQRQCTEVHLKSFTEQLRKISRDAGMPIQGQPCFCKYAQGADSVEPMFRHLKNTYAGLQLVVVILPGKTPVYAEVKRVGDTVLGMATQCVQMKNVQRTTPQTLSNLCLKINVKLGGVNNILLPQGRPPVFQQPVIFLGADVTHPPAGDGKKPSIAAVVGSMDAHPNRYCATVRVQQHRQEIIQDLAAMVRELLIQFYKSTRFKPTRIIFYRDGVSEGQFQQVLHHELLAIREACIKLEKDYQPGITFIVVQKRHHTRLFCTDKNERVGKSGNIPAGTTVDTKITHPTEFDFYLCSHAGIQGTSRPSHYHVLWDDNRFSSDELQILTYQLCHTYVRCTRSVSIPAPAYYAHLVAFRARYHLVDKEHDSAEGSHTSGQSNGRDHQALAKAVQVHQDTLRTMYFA

| effect of a mutation on the interaction | Substance |
| --- | --- |
| increasing interaction | Leucine-rich repeat serine/threonine-protein kinase 2 (Homo sapiens), Q5S007 G2019S |
| increasing interaction | Leucine-rich repeat serine/threonine-protein kinase 2 (Homo sapiens), Q5S007 K1906M;D1994A;D2017A |
